# Reference: US20240400670A1 (JIANGSU HENGRUI PHARMACEUTICALS, published 2024)
# Key:
# [1] = biological target: T1, human IL-23 (Sino Biological, CT048-H08H) (human, UniProt Q9NPF7 20-189; P29460 23-328); assay: cell-based or functional assay
# T1 sequence (looked up) 1: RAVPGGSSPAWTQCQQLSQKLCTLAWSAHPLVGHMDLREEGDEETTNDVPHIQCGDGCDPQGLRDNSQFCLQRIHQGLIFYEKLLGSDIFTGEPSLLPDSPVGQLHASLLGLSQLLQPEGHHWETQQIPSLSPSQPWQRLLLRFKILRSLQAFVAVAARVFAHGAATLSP
# T1 sequence (looked up) 2: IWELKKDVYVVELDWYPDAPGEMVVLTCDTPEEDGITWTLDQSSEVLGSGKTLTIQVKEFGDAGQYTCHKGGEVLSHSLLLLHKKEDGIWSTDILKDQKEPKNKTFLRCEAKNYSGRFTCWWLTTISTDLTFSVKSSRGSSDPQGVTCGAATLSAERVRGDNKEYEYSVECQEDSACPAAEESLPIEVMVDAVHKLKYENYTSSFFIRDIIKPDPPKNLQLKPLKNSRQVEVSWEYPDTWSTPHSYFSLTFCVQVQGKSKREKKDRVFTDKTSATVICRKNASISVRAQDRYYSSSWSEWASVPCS
# [2] = biological target: T1, human IL-23 (Sino Biological, …); assay: SPR (Biacore), Protein A capture of sample, 1:1 model
# Protocol: A certain amount of test sample was subjected to affinity capture by a biosensor chip Protein A (GE, 29127556), and then antigens at a series of concentration gradients were allowed to flow on the surface of the chip. The reaction signals were detected in real time by using Biacore (GE, 8 K) to obtain association and dissociation curves. After the dissociation was completed for each cycle, the biochip was washed and regenerated with a 10 mM glycine-hydrochloric acid solution at pH 1.5 (GE, BR-1003-54). Fitting was performed based on the experimental data using BlAevaluation version 4.1 software with a 1:1 model, and affinity values were obtained.
# [3] = biological target: T1, human IL-23 (Sino Biological, …); assay: competition ELISA, blocks IL-23/IL-23R; IL-23R coated, biotin-IL-23 + sample gradient
# Protocol: The specific procedures are as follows:
# The receptor protein was diluted to 2 μg/mL with a PBS (BasalMedia, B320) buffer at pH 7.4 and added to a 96-well microplate (Corning, 3590) at 100 μL/well. The plate was incubated at 4° C. overnight. After the liquid was discarded, 1 % Casein blocking solution (Thermo, 37528) was added at 200 μL/well for blocking, and the plate was incubated at 37° C. for 2 h. After the blocking was complete, the blocking solution was discarded, and the plate was washed 3 times with a PBST buffer (pH 7.4 PBS containing 0.1 % tween-20) for later use. After the biotin-labeled ligand protein at a fixed concentration was mixed with an antibody or fusion protein diluted in a gradient, the mixture was pre-incubated at 37° C. for 30 min and then added to the blocked microplate. The plate was incubated at 37° C. for 1.5 h. After the incubation was complete, the plate was washed 3 times with PBST. Streptavidin-HRP (Invitrogen, 434323, diluted at 1:4000) was added at 100 μL/well, and the plate was incubated at 37° C. for 1 h. The supernatant was removed. After the plate was washed 3 times with PBST, TMB chromogenic substrate (KPL, 5120-0077) was added at 100 μL/well, and the plate was incubated at room temperature for 10⁻¹⁵ min. 1 M H₂SO₄ was added at 50 μL/well to terminate the reaction. The absorbance values at 450 nm were taken using a microplate reader. Curves for the inhibition of binding of the ligands to the receptors were fitted using software, and the IC₅₀ values were calculated.
binder,measurement,setting,value
"Hu38-10 (antibody, human IgG1, kappa, L234A L235A, V domains shown, humanized mAb38, IgG1/kappa) VH: EFQLVQSGAEVKKPGASVKVSCKASGYSFTDHNMNWVRQAPGQRLEWMGVINPNYGTTTYNQKFKGRVTITVDQSASTAYMELSSLRSEDTAVYYCARRGFAYWGQGTLVTVSS VL: DIVMTQTPLSLPVTPGEPASISCRSSKSLLYKDGKTYLNWFLQKPGQSPQLLIYLMSTRASGVPDRFSGSGSGTDLTLKISRVEAEDVGVYYCQQIAEYPFTFGSGTKLEIKR","Activity in inhibiting proliferation of BaF3-IL-23R cells (IC50, nM)",[1],0.116 nM
same,Kd,[2],0.197 nM
same,koff,[2],7.07e-05 s⁻¹
same,kon,[2],358000 M⁻¹ s⁻¹
"Hu38-2 (antibody, human IgG1, kappa, L234A L235A, V domains shown, humanized mAb38, IgG1/kappa) VH: EFQLVQSGAEVKKPGASVKVSCKASGYTFTDHNMNWVRQAPGQRLEWMGVINPNYGTTTYNQKFKGRVTITVDTSASTAYMELSSLRSEDTAVYYCARRGFAYWGQGTLVTVSS VL: DIVMTQTPLSLPVTPGEPASISCRSSKSLLYKDGKTYLNWFLQKPGQSPQLLIYLMSTRASGVPDRFSGSGSGTDLTLKISRVEAEDVGVYYCQQIAEYPFTFGSGTKLEIKR",IC50,[3],0.465 nM
same,"Activity in inhibiting proliferation of BaF3-IL-23R cells (IC50, nM)",[1],0.138 nM
same,Kd,[2],0.18 nM
same,koff,[2],6.05e-05 s⁻¹
same,kon,[2],337000 M⁻¹ s⁻¹
"Hu38-6 (antibody, human IgG1, kappa, L234A L235A, V domains shown, humanized mAb38, IgG1/kappa) VH: EVQLVQSGAEVKKPGASVKVSCKASGYSFTDHNMNWVRQAPGQRLEWMGVINPNYGTTTYNQKFKGRVTITVDTSASTAYMELSSLRSEDTAVYYCARRGFAYWGQGTLVTVSS VL: DIVMTQTPLSLPVTPGEPASISCRSSKSLLYKDGKTYLNWFLQKPGQSPQLLIYLMSTRASGVPDRFSGSGSGTDLTLKISRVEAEDVGVYYCQQIAEYPFTFGSGTKLEIKR","Activity in inhibiting proliferation of BaF3-IL-23R cells (IC50, nM)",[1],0.136 nM
same,Kd,[2],0.143 nM
same,koff,[2],3.91e-05 s⁻¹
same,kon,[2],273000 M⁻¹ s⁻¹
"Hu38-11 (antibody, human IgG1, kappa, L234A L235A, V domains shown, humanized mAb38, IgG1/kappa) VH: EFQLVQSGAEVKKPGASVKVSCKASGYSFTDHNMNWVRQAPGQRLEWMGVINPNYGTTTYNQKFKGRVTITVDQSASTAYMELSSLRSEDTAVYYCARRGFAYWGQGTLVTVSS VL: DIVITQTPLSLPVTPGEPASISCRSSKSLLYKDGKTYLNWFLQRPGQSPQLLIYLMSTRASGVPDRFSGSGSGTDLTLKISRVEAEDVGVYYCQQIAEYPFTFGSGTKLEIKR","Activity in inhibiting proliferation of BaF3-IL-23R cells (IC50, nM)",[1],0.168 nM
same,Kd,[2],0.176 nM
same,koff,[2],6.15e-05 s⁻¹
same,kon,[2],349000 M⁻¹ s⁻¹
"Hu38-12 (antibody, human IgG1, kappa, L234A L235A, V domains shown, humanized mAb38, IgG1/kappa) VH: EFQLVQSGAEVKKPGASVKVSCKASGYSFTDHNMNWVRQAPGQRLEWMGVINPNYGTTTYNQKFKGRVTITVDQSASTAYMELSSLRSEDTAVYYCARRGFAYWGQGTLVTVSS VL: DIVMTQTPLSLPVTPGEPASISCRSSKSLLYKDGKTYLNWFLQKPGQSPQLLIYLMQTRASGVPDRFSGSGSGTDLTLKISRVEAEDVGVYYCQQIAEYPFTFGSGTKLEIKR","Activity in inhibiting proliferation of BaF3-IL-23R cells (IC50, nM)",[1],0.184 nM
same,Kd,[2],0.191 nM
same,koff,[2],6.12e-05 s⁻¹
same,kon,[2],321000 M⁻¹ s⁻¹
"Hu38-16 (antibody, human IgG1, kappa, L234A L235A, V domains shown, humanized mAb38, IgG1/kappa) VH: EFQLVQSGAEVKKPGASVKVSCKASGYSFTDHNMNWVRQAPGQSLEWMGVINPNYGTTTYNQKFKGRVTITVDQSASTAYMELSSLRSEDTAVYYCARRGFAYWGQGTLVTVSS VL: DIVMTQTPLSLPVTPGEPASISCRSSKSLLYKDGKTYLNWFLQKPGQSPQLLIYLMQTRASGVPDRFSGSGSGTDLTLKISRVEAEDVGVYYCQQIAEYPFTFGSGTKLEIKR","Activity in inhibiting proliferation of BaF3-IL-23R cells (IC50, nM)",[1],0.146 nM
same,Kd,[2],0.161 nM
same,koff,[2],5.49e-05 s⁻¹
same,kon,[2],341000 M⁻¹ s⁻¹
"Hu38-7 (antibody, human IgG1, kappa, L234A L235A, V domains shown, humanized mAb38, IgG1/kappa) VH: EVQLVQSGAEVKKPGASVKVSCKASGYSFTDHNMNWVRQAPGQRLEWMGVINPNYGTTTYNQKFKGRVTITVDTSASTAYMELSSLRSEDTAVYYCARRGFAYWGQGTLVTVSS VL: DIVITQTPLSLPVTPGEPASISCRSSKSLLYKDGKTYLNWFLQRPGQSPQLLIYLMSTRASGVPDRFSGSGSGTDLTLKISRVEAEDVGVYYCQQIAEYPFTFGSGTKLEIKR","Activity in inhibiting proliferation of BaF3-IL-23R cells (IC50, nM)",[1],0.179 nM
same,Kd,[2],0.152 nM
same,koff,[2],7.41e-05 s⁻¹
same,kon,[2],486000 M⁻¹ s⁻¹
"Hu38-15 (antibody, human IgG1, kappa, L234A L235A, V domains shown, humanized mAb38, IgG1/kappa) VH: EFQLVQSGAEVKKPGASVKVSCKASGYSFTDHNMNWVRQAPGQSLEWMGVINPNYGTTTYNQKFKGRVTITVDQSASTAYMELSSLRSEDTAVYYCARRGFAYWGQGTLVTVSS VL: DIVITQTPLSLPVTPGEPASISCRSSKSLLYKDGKTYLNWFLQRPGQSPQLLIYLMSTRASGVPDRFSGSGSGTDLTLKISRVEAEDVGVYYCQQIAEYPFTFGSGTKLEIKR","Activity in inhibiting proliferation of BaF3-IL-23R cells (IC50, nM)",[1],0.149 nM
same,Kd,[2],0.168 nM
same,koff,[2],8.3e-05 s⁻¹
same,kon,[2],494000 M⁻¹ s⁻¹
"Hu38-8 (antibody, human IgG1, kappa, L234A L235A, V domains shown, humanized mAb38, IgG1/kappa) VH: EVQLVQSGAEVKKPGASVKVSCKASGYSFTDHNMNWVRQAPGQRLEWMGVINPNYGTTTYNQKFKGRVTITVDTSASTAYMELSSLRSEDTAVYYCARRGFAYWGQGTLVTVSS VL: DIVMTQTPLSLPVTPGEPASISCRSSKSLLYKDGKTYLNWFLQKPGQSPQLLIYLMQTRASGVPDRFSGSGSGTDLTLKISRVEAEDVGVYYCQQIAEYPFTFGSGTKLEIKR","Activity in inhibiting proliferation of BaF3-IL-23R cells (IC50, nM)",[1],0.174 nM
same,Kd,[2],0.168 nM
same,koff,[2],4.75e-05 s⁻¹
same,kon,[2],282000 M⁻¹ s⁻¹
"Hu38-1 (antibody, human IgG1, kappa, L234A L235A, V domains shown, humanized mAb38, IgG1/kappa) VH: EFQLVQSGAEVKKPGASVKVSCKASGYTFTDHNMNWVRQAPGQRLEWMGVINPNYGTTTYNQKFKGRVTITVDTSASTAYMELSSLRSEDTAVYYCARRGFAYWGQGTLVTVSS VL: DIVMTQTPLSLPVTPGEPASISCRSSKSLLYKDGKTYLNWYLQKPGQSPQLLIYLMSTRASGVPDRFSGSGSGTDFTLKISRVEAEDVGVYYCQQIAEYPFTFGSGTKLEIKR","Activity in inhibiting proliferation of BaF3-IL-23R cells (IC50, nM)",[1],0.168 nM
same,Kd,[2],0.206 nM
same,koff,[2],4.56e-05 s⁻¹
same,kon,[2],222000 M⁻¹ s⁻¹
"Hu38-14 (antibody, human IgG1, kappa, L234A L235A, V domains shown, humanized mAb38, IgG1/kappa) VH: EFQLVQSGAEVKKPGASVKVSCKASGYSFTDHNMNWVRQAPGQSLEWMGVINPNYGTTTYNQKFKGRVTITVDQSASTAYMELSSLRSEDTAVYYCARRGFAYWGQGTLVTVSS VL: DIVMTQTPLSLPVTPGEPASISCRSSKSLLYKDGKTYLNWFLQKPGQSPQLLIYLMSTRASGVPDRFSGSGSGTDLTLKISRVEAEDVGVYYCQQIAEYPFTFGSGTKLEIKR","Activity in inhibiting proliferation of BaF3-IL-23R cells (IC50, nM)",[1],0.152 nM
same,Kd,[2],0.175 nM
same,koff,[2],5.45e-05 s⁻¹
same,kon,[2],312000 M⁻¹ s⁻¹
"Hu38-3 (antibody, human IgG1, kappa, L234A L235A, V domains shown, humanized mAb38, IgG1/kappa) VH: EFQLVQSGAEVKKPGASVKVSCKASGYTFTDHNMNWVRQAPGQRLEWMGVINPNYGTTTYNQKFKGRVTITVDTSASTAYMELSSLRSEDTAVYYCARRGFAYWGQGTLVTVSS VL: DIVITQTPLSLPVTPGEPASISCRSSKSLLYKDGKTYLNWFLQRPGQSPQLLIYLMSTRASGVPDRFSGSGSGTDLTLKISRVEAEDVGVYYCQQIAEYPFTFGSGTKLEIKR","Activity in inhibiting proliferation of BaF3-IL-23R cells (IC50, nM)",[1],0.174 nM
same,Kd,[2],0.113 nM
same,koff,[2],4.44e-05 s⁻¹
same,kon,[2],393000 M⁻¹ s⁻¹
"risankizumab (antibody, human IgG1, kappa, L234A L235A, V domains shown, control anti-IL-23 antibody; also called control molecule) VH: QVQLVQSGAEVKKPGSSVKVSCKASGYTFTDQTIHWMRQAPGQGLEWIGYIYPRDDSPKYNENFKGKVTITADKSTSTAYMELSSLRSEDTAVYYCAIPDRSGYAWFIYWGQGTLVTVSS VL: DIQMTQSPSSLSASVGDRVTITCKASRDVAIAVAWYQQKPGKVPKLLIYWASTRHTGVPSRFSGSGSRTDFTLTISSLQPEDVADYFCHQYSSYPFTFGSGTKLEIKR",IC50,[3],0.61 nM
same,Kd,[2],0.0651 nM
same,koff,[2],4.91e-05 s⁻¹
same,kon,[2],754000 M⁻¹ s⁻¹
